# T1: FcγRIIb extracellular domain with C-terminal His tag (human, UniProt P31994 43-217)
# T1 construct: extracellular domain; also called FcgRIIb; 2b
# T1 sequence (looked up): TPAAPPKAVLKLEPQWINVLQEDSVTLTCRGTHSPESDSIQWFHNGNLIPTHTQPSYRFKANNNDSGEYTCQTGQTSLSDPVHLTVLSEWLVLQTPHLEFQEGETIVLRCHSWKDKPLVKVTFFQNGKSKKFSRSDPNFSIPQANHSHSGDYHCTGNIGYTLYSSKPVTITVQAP
# B1: GpH7-A5/GpH7-B3 variant G237_04F/GpL16-k0 (antibody, human IgG1, kappa)
# heavy 1: not shown
# heavy 2: not shown
# light: DIVMTQSPLSLPVTPGEPASISCQASESLVHSNRNTYLHWYLQKPGQSPQLLIYKVSNRFSGVPDRFSGSGSGTDFTLKISRVEAEDVGVYYCSQNTHVPPTFGQGTKVEIERTVAAPSVFIFPPSDEQLKSGTASVVCLLNNFYPREAKVQWKVDNALQSGNSQESVTEQDSKDSTYSLSSTLTLSKADYEKHKVYACEVTHQGLSSPVTKSFNRGEC
# notes: also called He Ab G237_04F
# B2: GpH7-A5/GpH7-B3 variant N325_08L/GpL16-k0 (antibody, human IgG1, kappa)
# heavy 1: not shown
# heavy 2: not shown
# light: B1 light
# notes: also called He Ab N325_08L
# B3: GpH7-A5/GpH7-B3 variant P331_20W/GpL16-k0 (antibody, human IgG1, kappa)
# heavy 1: not shown
# heavy 2: not shown
# light: B1 light
# notes: also called He Ab P331_20W
# B4: GpH7-A5/GpH7-B3 variant G237_09D/GpL16-k0 (antibody, human IgG1, kappa)
# heavy 1: not shown
# heavy 2: not shown
# light: B1 light
# notes: also called He Ab G237_09D
# B5: GpH7-A5/GpH7-B3 variant P331_16H/GpL16-k0 (antibody, human IgG1, kappa)
# heavy 1: not shown
# heavy 2: not shown
# light: B1 light
# notes: also called He Ab P331_16H
# B6: GpH7-A5/GpH7-B3 variant N325_09D/GpL16-k0 (antibody, human IgG1, kappa)
# heavy 1: not shown
# heavy 2: not shown
# light: B1 light
# notes: also called He Ab N325_09D
# B7: GpH7-A5/GpH7-B3 variant N325_07I/GpL16-k0 (antibody, human IgG1, kappa)
# heavy 1: not shown
# heavy 2: not shown
# light: B1 light
# notes: also called He Ab N325_07I
# B8: GpH7-A5/GpH7-B3 variant H268_03V/GpL16-k0 (antibody, human IgG1, kappa)
# heavy 1: not shown
# heavy 2: not shown
# light: B1 light
# notes: also called He Ab H268_03V
# B9: GpH7-A5/GpH7-B3 variant P238_19Q/GpL16-k0 (antibody, human IgG1, kappa)
# heavy 1: not shown
# heavy 2: not shown
# light: B1 light
# notes: also called He Ab P238_19Q
# B10: GpH7-A5/GpH7-B3 variant I336_06M/GpL16-k0 (antibody, human IgG1, kappa)
# heavy 1: not shown
# heavy 2: not shown
# light: B1 light
# notes: also called He Ab I336_06M
# B11: GpH7-A5/GpH7-B3 variant P331_06M/GpL16-k0 (antibody, human IgG1, kappa)
# heavy 1: not shown
# heavy 2: not shown
# light: B1 light
# notes: also called He Ab P331_06M
# B12: GpH7-A5/GpH7-B3 variant I332_14T/GpL16-k0 (antibody, human IgG1, kappa)
# heavy 1: not shown
# heavy 2: not shown
# light: B1 light
# notes: also called He Ab I332_14T
# B13: GpH7-A5/GpH7-B3 variant P331_03V/GpL16-k0 (antibody, human IgG1, kappa)
# heavy 1: not shown
# heavy 2: not shown
# light: B1 light
# notes: also called He Ab P331_03V
# B14: GpH7-A5/GpH7-B3 variant L235_20W/GpL16-k0 (antibody, human IgG1, kappa)
# heavy 1: not shown
# heavy 2: not shown
# light: B1 light
# notes: also called He Ab L235_20W
# B15: GpH7-A5/GpH7-B3 variant L234_10E/GpL16-k0 (antibody, human IgG1, kappa)
# heavy 1: not shown
# heavy 2: not shown
# light: B1 light
# notes: also called He Ab L234_10E
# B16: GpH7-A5/GpH7-B3 variant P271_09D/GpL16-k0 (antibody, human IgG1, kappa)
# heavy 1: not shown
# heavy 2: not shown
# light: B1 light
# notes: also called He Ab P271_09D
# B17: GpH7-A5/GpH7-B3 variant P238_09D/GpL16-k0 (antibody, human IgG1, kappa)
# heavy 1: not shown
# heavy 2: not shown
# light: B1 light
# notes: also called He Ab P238_09D
# B18: GpH7-A5/GpH7-B3 variant H268_05P/GpL16-k0 (antibody, human IgG1, kappa)
# heavy 1: not shown
# heavy 2: not shown
# light: B1 light
# notes: also called He Ab H268_05P
# B19: GpH7-A5/GpH7-B3 variant L328_09D/GpL16-k0 (antibody, human IgG1, kappa)
# heavy 1: not shown
# heavy 2: not shown
# light: B1 light
# notes: also called He Ab L328_09D
# B20: GpH7-A5/GpH7-B3 variant N325_13S/GpL16-k0 (antibody, human IgG1, kappa)
# heavy 1: not shown
# heavy 2: not shown
# light: B1 light
# notes: also called He Ab N325_13S
# B21: GpH7-A5/GpH7-B3 variant P238_20W/GpL16-k0 (antibody, human IgG1, kappa)
# heavy 1: not shown
# heavy 2: not shown
# light: B1 light
# notes: also called He Ab P238_20W
# B22: GpH7-A5/GpH7-B3 variant N325_04F/GpL16-k0 (antibody, human IgG1, kappa)
# heavy 1: not shown
# heavy 2: not shown
# light: B1 light
# notes: also called He Ab N325_04F
# B23: GpH7-A5/GpH7-B3 variant L234_09D/GpL16-k0 (antibody, human IgG1, kappa)
# heavy 1: not shown
# heavy 2: not shown
# light: B1 light
# notes: also called He Ab L234_09D
# B24: GpH7-A5/GpH7-B3 variant P271_10E/GpL16-k0 (antibody, human IgG1, kappa)
# heavy 1: not shown
# heavy 2: not shown
# light: B1 light
# notes: also called He Ab P271_10E
# B25: GpH7-A5/GpH7-B3 variant G237_18N/GpL16-k0 (antibody, human IgG1, kappa)
# heavy 1: not shown
# heavy 2: not shown
# light: B1 light
# notes: also called He Ab G237_18N
# B26: GpH7-A5/GpH7-B3 variant G237_13S/GpL16-k0 (antibody, human IgG1, kappa)
# heavy 1: not shown
# heavy 2: not shown
# light: B1 light
# notes: also called He Ab G237_13S
# B27: GpH7-A5/GpH7-B3 variant L235_15Y/GpL16-k0 (antibody, human IgG1, kappa)
# heavy 1: not shown
# heavy 2: not shown
# light: B1 light
# notes: also called He Ab L235_15Y
# B28: GpH7-A5/GpH7-B3 variant N325_20W/GpL16-k0 (antibody, human IgG1, kappa)
# heavy 1: not shown
# heavy 2: not shown
# light: B1 light
# notes: also called He Ab N325_20W
# B29: GpH7-A5/GpH7-B3 variant K326_08L/GpL16-k0 (antibody, human IgG1, kappa)
# heavy 1: not shown
# heavy 2: not shown
# light: B1 light
# notes: also called He Ab K326_08L
# Target: T1, FcγRIIb extracellular domain with …
# Experiment: SPR (Biacore), relative binding
row,He/Con_2b,Binder
1,149 % of HeCon Ab GpH7-A5/GpH7-B3/GpL16-k0,B1
2,197 % of HeCon Ab GpH7-A5/GpH7-B3/GpL16-k0,B2
3,111 % of HeCon Ab GpH7-A5/GpH7-B3/GpL16-k0,B3
4,223 % of HeCon Ab GpH7-A5/GpH7-B3/GpL16-k0,B4
5,116 % of HeCon Ab GpH7-A5/GpH7-B3/GpL16-k0,B5
6,124 % of HeCon Ab GpH7-A5/GpH7-B3/GpL16-k0,B6
7,171 % of HeCon Ab GpH7-A5/GpH7-B3/GpL16-k0,B7
8,114 % of HeCon Ab GpH7-A5/GpH7-B3/GpL16-k0,B8
9,110 % of HeCon Ab GpH7-A5/GpH7-B3/GpL16-k0,B9
10,101 % of HeCon Ab GpH7-A5/GpH7-B3/GpL16-k0,B10
11,102 % of HeCon Ab GpH7-A5/GpH7-B3/GpL16-k0,B11
12,106 % of HeCon Ab GpH7-A5/GpH7-B3/GpL16-k0,B12
13,119 % of HeCon Ab GpH7-A5/GpH7-B3/GpL16-k0,B13
14,147 % of HeCon Ab GpH7-A5/GpH7-B3/GpL16-k0,B14
15,118 % of HeCon Ab GpH7-A5/GpH7-B3/GpL16-k0,B15
16,120 % of HeCon Ab GpH7-A5/GpH7-B3/GpL16-k0,B16
17,221 % of HeCon Ab GpH7-A5/GpH7-B3/GpL16-k0,B17
18,116 % of HeCon Ab GpH7-A5/GpH7-B3/GpL16-k0,B18
19,199 % of HeCon Ab GpH7-A5/GpH7-B3/GpL16-k0,B19
20,177 % of HeCon Ab GpH7-A5/GpH7-B3/GpL16-k0,B20
21,123 % of HeCon Ab GpH7-A5/GpH7-B3/GpL16-k0,B21
22,143 % of HeCon Ab GpH7-A5/GpH7-B3/GpL16-k0,B22
23,150 % of HeCon Ab GpH7-A5/GpH7-B3/GpL16-k0,B23
24,109 % of HeCon Ab GpH7-A5/GpH7-B3/GpL16-k0,B24
25,180 % of HeCon Ab GpH7-A5/GpH7-B3/GpL16-k0,B25
26,111 % of HeCon Ab GpH7-A5/GpH7-B3/GpL16-k0,B26
27,149 % of HeCon Ab GpH7-A5/GpH7-B3/GpL16-k0,B27
28,169 % of HeCon Ab GpH7-A5/GpH7-B3/GpL16-k0,B28
29,177 % of HeCon Ab GpH7-A5/GpH7-B3/GpL16-k0,B29

# — patent US20150344570A1 (published 2015)
